Consider six molecules from US20230303685A1 (ELECTRA THERAPEUTICS, published 2023).

One assay addresses T1, Human SIRPγ CHO.
T1 construct: also called human SIRPγ on CHO cells
T1 chain: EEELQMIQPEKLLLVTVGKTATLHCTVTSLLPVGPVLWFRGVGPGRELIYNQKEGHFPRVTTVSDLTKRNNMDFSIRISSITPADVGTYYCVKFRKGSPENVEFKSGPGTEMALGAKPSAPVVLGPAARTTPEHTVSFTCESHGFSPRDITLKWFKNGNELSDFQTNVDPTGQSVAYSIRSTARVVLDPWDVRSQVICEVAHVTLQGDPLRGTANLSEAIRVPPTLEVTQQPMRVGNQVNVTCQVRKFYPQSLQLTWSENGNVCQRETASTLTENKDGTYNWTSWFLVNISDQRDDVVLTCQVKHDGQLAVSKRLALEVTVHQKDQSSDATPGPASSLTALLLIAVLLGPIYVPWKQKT
The assay is described as follows: flow cytometry, stably transfected CHO cells, antibody titrated, labelled anti-rat or anti-mouse IgG, MFI. Here is the method: Selected antibodies were tested for binding to stably transfected human SIRPα, SIRPβ1 (co-transfected with DAP12), or SIRPγ Chinese hamster ovary (CHO) cells via flow cytometry. A titration of SIRP antibodies was added to the cells and detected using a fluorescently labelled secondary antibody. Graph depicts the median fluorescence intensity (MFI) at each concentration.
On the technique in general: Flow cytometry measures light scatter and fluorescence of single cells or particles in a stream.

Assay [1] concerns the target T2, Human SIRPγ.
T2 construct: also called human SIRPγ extracellular domain, plate-coated
T2 chain: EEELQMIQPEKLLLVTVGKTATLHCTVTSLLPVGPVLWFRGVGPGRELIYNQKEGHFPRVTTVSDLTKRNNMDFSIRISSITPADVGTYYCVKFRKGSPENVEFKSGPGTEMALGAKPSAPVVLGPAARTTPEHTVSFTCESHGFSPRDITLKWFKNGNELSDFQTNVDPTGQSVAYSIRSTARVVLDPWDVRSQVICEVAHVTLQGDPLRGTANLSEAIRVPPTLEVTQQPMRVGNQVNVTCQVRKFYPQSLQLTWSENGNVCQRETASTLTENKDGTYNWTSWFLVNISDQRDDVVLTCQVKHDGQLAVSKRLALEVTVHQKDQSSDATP
In words: ELISA, extracellular domain coated at 2 µg/mL, purified antibody titrated, anti-rat or anti-mouse IgG, chemiluminescence. As for the experimental part:
(§1) Select SIRP antibodies were purified by Protein G from hybridoma supernatants and analyzed in a titration via ELISA. Briefly, 2 μg/mL of extracellular domain of each of the SIRPs was coated onto high protein-binding plates and blocked. Purified antibodies were added in a titration to the coated plates. The antibodies were detected by an anti-rat IgG or an anti-mouse IgG antibody and a chemiluminescent substrate.
A general note: ELISA stands for enzyme-linked immunosorbent assay.

The target in the next assay is T3, Cynomolgus Monkey SIRPγ (Macaca fascicularis).
T3 construct: extracellular domain; also called cyno SIRPγ extracellular domain, plate-coated
The description is as above. As for the experimental part: as §1

The target in a further assay is T4, human SIRPγ-His monomer (human).
T4 construct: 'SIRP-His monomer protein' of the Octet assay; also called SIRP-His; not shown: His tag
The assay is described as follows: BLI (Octet); antibody on anti-mouse IgG capture tip, SIRP-His monomer at 100, 33.3, 11.1 nM, 1:1 fit, mean KD. Here is the method:
(§2) Select SIRP antibodies were tested for their affinities to human SIRPα, SIRPβ1, and SIRPγ using a biolayer interferometry (BLI) Octet system (Pall ForteBio). Each SIRP antibody with rat or mouse Fc was immobilized on a biosensor tip by an anti-mouse IgG capture (AMC). Antibodies with human Fc were digested with gingipain K enzyme to yield monomeric F(ab′), biotinylated, then coated onto streptavidin biosensors. […] The biosensors were then exposed to wash buffer to measure off-rate kinetics. The resulting kinetic data were analyzed and fitted using a 1:1 binding model with kₒₙ and kdis fitted separately at each SIRP-His protein concentration. KD affinities were calculated as kdis to kₒₙ ratio at each concentration of SIRP-His and averaged.

Assay [2] addresses T5, Human SIRPγ conjugated to an Fc region (human).
T5 construct: also called SIRPγ-Fc; SIRP-Fc; not shown: Fc region
In words: BLI blocking; 200 nM antibody pre-incubated with 20 nM SIRPγ-Fc, binding to immobilised CD47-His (competitor), % of response of SIRPγ-Fc alone.

The target of assay [3] is T2, Human SIRPγ. In words: ELISA, extracellular domain coated at 1 µg/mL, purified antibody titrated, anti-human IgG, chemiluminescence. As for the experimental part: Select SIRP antibodies were purified by Protein G from hybridoma supernatants and analyzed in a titration via ELISA. Briefly, 1 μg/mL of extracellular domain SIRPα was coated onto high protein-binding plates and blocked. Purified antibodies were added in a titration to the coated plates. The antibodies were detected by an anti-rat IgG antibody and a chemiluminescent substrate.
FIGS. 3A-3C show binding curves of SIRP antibodies and two isotype controls with human Fc to human SIRPα V1, human SIRPβ1, human SIRPγ and cynomolgus monkey SIRPα by ELISA. […] Isotype control 1 was an unrelated human IgG1 antibody with irrelevant CDRs. Isotype control 2 was the same as isotype control 1 but contained the same amino acid substitutions in the Fc region as some of the selected SIRP antibodies for increased FcγR binding (referring to Table 11). DNA was transiently transfected into CHO cells for 7 days. Antibodies were purified by Protein A from cell supernatants and analyzed in a titration via ELISA as previously described in FIGS. 2A-2B using an anti-human IgG antibody as the detection antibody.

For assay [4], the target named is T6, human SIRPα V1 extracellular domain, monomeric (human, UniProt P78324 31-373).
T6 construct: also called hSIRPα V1
In words: SPR (Biacore); antibody captured by anti-IgG on chip, monomeric SIRPα extracellular domain as analyte, 1:1 model. As for the experimental part: (§3) Selected antibodies were tested for their affinities to two hSIRPα variants (V1 and V2), and to cynomolgus monkey (herein referred to as “cyno”) SIRPα. The affinities of these SIRP antibodies were determined using surface plasmon resonance. The SIRP antibodies were flowed onto a chip and captured by an anti-mouse IgG or an anti-human IgG covalently coupled to the surface of the chip. A three-point titration of the extracellular binding domain of hSIRPα was performed per the manufacturer's recommended protocols.
Background: In SPR one partner is held on a chip, and binding of the other changes the refractive index at the surface.

The target in assay [5] is T7, cynomolgus monkey SIRPα extracellular domain, monomeric (cynomolgus monkey, UniProt A0A2K5VYQ9 31-372).
T7 construct: extracellular domain; also called Cyno SIRPα
The assay is described as above. As for the experimental part: as §3

Assay [6] deals with T8, human SIRPα V2 extracellular domain, monomeric (human, UniProt P78324 31-370).
T8 construct: also called hSIRPα V2
Described as above. Here is the method:
as §3

Assay [7] has as its target T6, human SIRPα V1 extracellular domain, …. In words: ELISA, extracellular domain coated at 2 µg/mL, purified antibody titrated, anti-rat or anti-mouse IgG, chemiluminescence. As for the experimental part: as §1
Another assay deals with T9, Human SIRPβ1.
T9 construct: also called human SIRPβ1 extracellular domain, plate-coated
T9 chain: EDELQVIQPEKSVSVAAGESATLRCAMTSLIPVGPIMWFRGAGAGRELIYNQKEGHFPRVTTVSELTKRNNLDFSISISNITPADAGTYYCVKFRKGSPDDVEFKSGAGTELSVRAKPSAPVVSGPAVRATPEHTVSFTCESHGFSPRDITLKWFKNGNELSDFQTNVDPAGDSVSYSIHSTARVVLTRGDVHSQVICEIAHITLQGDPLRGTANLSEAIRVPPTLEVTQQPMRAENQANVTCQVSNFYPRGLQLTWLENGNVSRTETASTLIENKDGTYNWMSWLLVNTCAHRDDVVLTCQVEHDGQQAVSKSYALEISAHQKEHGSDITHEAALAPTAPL
The description is as above. As for the experimental part: as §1

For another assay, the target named is T10, human SIRPβ1-His monomer (human, UniProt O00241 30-371).
T10 construct: 'SIRP-His monomer protein' of the Octet assay; also called SIRP-His; not shown: His tag
The assay is described as follows: BLI (Octet); antibody on anti-mouse IgG capture tip, SIRP-His monomer at 100, 33.3, 11.1 nM, 1:1 fit, mean KD. As for the experimental part:
as §2

Assay [8] has as its target T11, human SIRPα V1-His monomer (human, UniProt P78324 31-373, limits assumed).
T11 construct: 'SIRP-His monomer protein' of the Octet assay; also called SIRP-His; not shown: His tag
Described as above. Here is the method:
as §2

B1: Antibody 14 (antibody, V domains shown)
VH: QVQLVESGGGVVQPGRSLRLSCVASGFIFSNYGMHWVRQAPGKGLEWVAVISYDGRNEDHVDSVKGRFTISRDNSKNTLYLQMNSLRAEDTAVYYCAKGSGSYYFDYWGQGTLVTVSS
VL: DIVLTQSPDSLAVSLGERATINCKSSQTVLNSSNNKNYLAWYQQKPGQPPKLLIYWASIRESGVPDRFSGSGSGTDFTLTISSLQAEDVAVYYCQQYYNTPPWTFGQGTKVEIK
notes: Human variable region, rat IgG2b Fc; from hybridoma
Usually EC50 (read off the curve) stands for the concentration at which the effect is half-maximal. By Kd is commonly meant the concentration at which binding is half-saturated. As to B1, in the assay with Human SIRPγ CHO, the binding result is “binds”. Also, the “EC50 (read off the curve)” value with Human SIRPγ [1] was ~0.05 µg/mL; in the assay with Cynomolgus Monkey SIRPγ, ~0.09 µg/mL. Moreover, binding with human SIRPγ-His monomer was put at a Kd of 38.7 nM. For the same molecule, the “SIRPγ-CD47 Response (%)” value in [2] came out at 14.4%.

B2: Antibody 23 (antibody, V domains shown)
VH: QVQLQESGPGLVKPSGTLSLTCAVSGGSISSSNWWSWVRQPPGKGLEWIGEIYHSGSTNYNPSLKSRVTISVDKSKNQFSLKLSSVTAADTAVYYCARRGIWFGVGPWGQGTLVTVSS
VL: DIVMTQSPLSLPVTPGEPASISCRSSQSLLHGNGFNYLDWYLQKPGQSPQLLIYLGSNRASGVPDRFTGSGSGTDFTLKISRVEAEDVGVYYCMQGLQTPRTFGQGTKVEIK
notes: Variable regions of Antibody 1
With B2, the “EC50 (read off the curve)” value in the assay with Human SIRPγ [3] is ~0.04 µg/mL. Also, the Kd in [4] stood at 323 nM; in assay [5], 384 nM; in assay [6], 374 nM.

B3: Antibody 3 (antibody, V domains shown)
VH: QVQLQESGPGLVKPSGTLSLTCAVSGGSISSSNWWSWVRQPPGKGLEWIGEIYHSGNTNYNPSLKSRVTISVDKSKNQFSLKLSSVTAADTAVYYCAREGIEGYYFYYGMDVWGQGTTVTVSS
VL: DIQLTQSPSFLSASVGDRVTITCRASQGISGYLDWYQQKPGKAPKLLIYAASTLQRGVPSRFSGSGSGTDFNLTISSLQPEDFATYYCQQFTSDLITFGQGTRLEIK
notes: as for B1
For the molecule B3, the “EC50 (read off the curve)” value was ~0.2 µg/mL with Human SIRPγ CHO; ~0.1 µg/mL in [7]; ~0.06 µg/mL with Human SIRPγ [1]; ~0.06 µg/mL with Human SIRPβ1; ~0.1 µg/mL with Cynomolgus Monkey SIRPγ. Also, the dissociation constant (Kd) in the assay with human SIRPβ1-His monomer worked out at 7500 nM; in assay [8], 3.1 nM; in the assay with human SIRPγ-His monomer, 103 nM; in [4], 4.57 nM; in assay [5] it was 513 nM. Also, the “SIRPγ-CD47 Response (%)” value in [2] was -7.23%.

B4: Antibody 24 (antibody, V domains shown)
VH: QVQLQESGPGLVKPSGTLSLTCAVSGGSISSSNWWSWVRQPPGKGLEWIGEIYHSGNTNYNPSLKSRVTISVDKSKNQFSLKLSSVTAADTAVYYCAREGIEGYYFYYGMDVWGQGTTVTVSS
VL: DIQLTQSPSFLSASVGDRVTITCRASQGISGYLDWYQQKPGKAPKLLIYAASTLQRGVPSRFSGSGSGTDFNLTISSLQPEDFATYYCQQFTSDLITFGQGTRLEIK
notes: Variable regions of Antibody 3
For B4, the “EC50 (read off the curve)” value in the assay with Human SIRPγ [3] is ~0.02 µg/mL. In addition, the figures for the Kd in assay [4], in assay [5] and in [6] were 2.89 nM, 15 nM and 22.6 nM, respectively. The “SIRPγ-CD47 Response (%)” value in assay [2] was -37.9%.

B5: Antibody 9 (antibody, V domains shown)
VH: QVQLQQWGAGLLKPSETLSLTCAVYGGSFSTYYWNWIRQPPGKGLEWIGEINHSGSTNYNPSLKSRVIISVDTSKNQFSLKLSSVTAADTAVYYCASSHYGSGSFPDSYGMDVWGQGTTVTVSA
VL: SYELTQSPSVSVSPGQTASITCSGDKLGDRYAWWYQQKPGQSPVLVIYQDDKRPSGIPERFSGSNSGNTATLTISGTQAMDEADYYCQAWDSSTAVFGGGTKLTVL
notes: as for B1
B5: the binding result with Human SIRPγ CHO and with Human SIRPγ [1] was “binds” in each case. Further, the Kd in assay [8] was determined as 1.24 nM.

B6: Antibody 10 (antibody, V domains shown)
VH: EVQLLESGGGLVQPGGSLRLSCAASGFTFSSYAMSWVRQAPGKGLEWVSAISGSGGDTYYADSVKGRFTISRDNSKSTLYLQMNSLRAEDTAVYYCAKDGGSYYPPFDYWGQGTLVTVSS
VL: SYELTQPPSVSVSPGQTASITCSGDKLGDRYACWYQQKPGQSPVLVIYQDTKRPSGIPERFSGSNSGNTATLTISGTQAMDEADYYCQACDSSTAVFGGGTKLTVL
notes: as for B1
B6: the binding result in the assay with Human SIRPγ CHO and in the assay with Human SIRPγ [1] was “binds” in each case. The values for the Kd (in assay [8]; in the assay with human SIRPγ-His monomer) were 57.6 nM and 1.37 nM, respectively. Also, the “SIRPγ-CD47 Response (%)” value in assay [2] is -4.29%.
